# Results as given in patent publication US20080305116A1 (published 2008).
# Substitutions are numbered along the chain they refer to. Names may count otherwise.
# T1: CD154 on D1.1 cells (human, UniProt P29965 1-261)
# T1 sequence (looked up): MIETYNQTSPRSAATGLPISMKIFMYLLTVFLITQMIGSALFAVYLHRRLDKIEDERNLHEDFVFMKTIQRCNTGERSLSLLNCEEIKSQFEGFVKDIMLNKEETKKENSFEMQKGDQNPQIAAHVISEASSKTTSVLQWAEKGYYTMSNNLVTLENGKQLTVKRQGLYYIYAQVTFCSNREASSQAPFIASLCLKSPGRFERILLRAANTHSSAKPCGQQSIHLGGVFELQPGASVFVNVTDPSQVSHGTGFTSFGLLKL
# T2: human CD154, soluble antigen (human, UniProt P29965 116-261, limits assumed)
# T2 construct: KinExA uses 'soluble antigen'; also called CD40 ligand; CD40L
# T2 sequence (looked up): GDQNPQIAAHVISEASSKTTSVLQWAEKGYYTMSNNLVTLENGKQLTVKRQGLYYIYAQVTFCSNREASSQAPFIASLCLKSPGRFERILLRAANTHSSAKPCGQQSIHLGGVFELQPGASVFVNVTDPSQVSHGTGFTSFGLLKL
# B1: 5c8 Fab Mutant #14 (light chain S26D/Q27E) (Fab, V domains shown)
# VH: QVQLVQSGAEVVKPGASVKLSCKASGYIFTSYYMYWVKQAPGQGLEWIGEINPSNGDTNFNEKFKSKATLTVDKSASTAYMELSSLRSEDTAVYYCTRSDGRNDMDSWGQGTLVTVSS
# VL: DIVLTQSPATLSVSPGERATISCRADERVSSSTYSYMHWYQQKPGQPPKLLIKYASNLESGVPARFSGSGSGTDFTLTISSVEPEDFATYYCQHSWEIPPTFGGGTKLEIK
# notes: also called double mutant
# B2: 5c8 Fab Mutant #25 (heavy T30H/Y33W; light S26D/Q27E/T33W) (Fab, V domains shown)
# VH: B1 VH with T30H, Y33W
# VL: B1 VL with T33W
# B3: 5c8 Fab Mutant #17 (heavy Y33W; light S26D/Q27E/T33W) (Fab, V domains shown)
# VH: B1 VH with Y33W
# VL: B1 VL with T33W
# B4: 5c8 Fab Mutant #23 (heavy Y33W; light S26D/Q27E) (Fab, V domains shown)
# VH: B1 VH with Y33W
# VL: B1 VL
# B5: 5c8 Fab Mutant #15 (light chain S26D/Q27E/T33W) (Fab, V domains shown)
# VH: B1 VH
# VL: B1 VL with T33W
# B6: 5c8 Fab Mutant #24 (heavy T30H/Y33W; light S26D/Q27E) (Fab, V domains shown)
# VH: B1 VH with T30H, Y33W
# VL: B1 VL
# B7: 5c8 Fab Mutant #18 (heavy T30H; light S26D/Q27E/T33W) (Fab, V domains shown)
# VH: B1 VH with T30H
# VL: B1 VL with T33W
# B8: 5c8 Fab Mutant #16 (heavy T30H; light S26D/Q27E) (Fab, V domains shown)
# VH: B1 VH with T30H
# VL: B1 VL
# Target: T1, CD154 on D1.1 cells
# Assay: cell-based or functional assay
row,"IC50 (ug/ml), T cell-dependent B cell activation assay",Binder
1,0.287 µg/mL,B1
2,0.165 µg/mL,B2
3,0.131 µg/mL,B3

# Target: T2, human CD154, soluble antigen
# Assay: assay not given
row,fold higher affinity compared to the wild type,Binder
1,25 fold,B2

# Target: T2, human CD154, soluble antigen
# Assay: KinExA solution-phase equilibrium, Fab with soluble antigen
row,Kd,Binder
1,0.041 nM,B1
2,0.053 nM,B4
3,0.012 nM,B2
4,0.023 nM,B3
5,0.044 nM,B5
6,0.052 nM,B6
7,0.054 nM,B7
8,0.07 nM,B8

# Target: T2, human CD154, soluble antigen
# Assay: assay not named in the sentence (the paragraph speaks of competitive ELISA)
row,fold higher affinity compared to the wildtype 5c8 Fab,Binder
1,9 fold,B1

# Target: T2, human CD154, soluble antigen
# Assay: ELISA-based competitive binding assay; unlabeled Fab against biotin-labeled 5c8 Fab competitor
row,ELISA fold-improvement over wildtype,Binder
1,5.6 fold,B1
2,5.2 fold,B4
3,5.6 fold,B2
4,5.9 fold,B3
5,3.8 fold,B5
6,8 fold,B6
7,5.4 fold,B7
8,5.8 fold,B8
